Reference: patent US20200157212A1 (Pfizer, published 2020)
Residue numbers refer to the chain shown, from its start. One block for each binder: values may come before it.

Columns and labels:
Rat ROBO2 on cells = target: T1, Rat ROBO2 on cells (rat, UniProt Q7TPD3 22-1469 (mouse entry)); test: flow cytometry, HEK293 cells
T1 construct: overexpressed on HEK293 cells in flow cytometry; endogenous on rat SVZ neuronal explants in the SVZa assay
T1 chain: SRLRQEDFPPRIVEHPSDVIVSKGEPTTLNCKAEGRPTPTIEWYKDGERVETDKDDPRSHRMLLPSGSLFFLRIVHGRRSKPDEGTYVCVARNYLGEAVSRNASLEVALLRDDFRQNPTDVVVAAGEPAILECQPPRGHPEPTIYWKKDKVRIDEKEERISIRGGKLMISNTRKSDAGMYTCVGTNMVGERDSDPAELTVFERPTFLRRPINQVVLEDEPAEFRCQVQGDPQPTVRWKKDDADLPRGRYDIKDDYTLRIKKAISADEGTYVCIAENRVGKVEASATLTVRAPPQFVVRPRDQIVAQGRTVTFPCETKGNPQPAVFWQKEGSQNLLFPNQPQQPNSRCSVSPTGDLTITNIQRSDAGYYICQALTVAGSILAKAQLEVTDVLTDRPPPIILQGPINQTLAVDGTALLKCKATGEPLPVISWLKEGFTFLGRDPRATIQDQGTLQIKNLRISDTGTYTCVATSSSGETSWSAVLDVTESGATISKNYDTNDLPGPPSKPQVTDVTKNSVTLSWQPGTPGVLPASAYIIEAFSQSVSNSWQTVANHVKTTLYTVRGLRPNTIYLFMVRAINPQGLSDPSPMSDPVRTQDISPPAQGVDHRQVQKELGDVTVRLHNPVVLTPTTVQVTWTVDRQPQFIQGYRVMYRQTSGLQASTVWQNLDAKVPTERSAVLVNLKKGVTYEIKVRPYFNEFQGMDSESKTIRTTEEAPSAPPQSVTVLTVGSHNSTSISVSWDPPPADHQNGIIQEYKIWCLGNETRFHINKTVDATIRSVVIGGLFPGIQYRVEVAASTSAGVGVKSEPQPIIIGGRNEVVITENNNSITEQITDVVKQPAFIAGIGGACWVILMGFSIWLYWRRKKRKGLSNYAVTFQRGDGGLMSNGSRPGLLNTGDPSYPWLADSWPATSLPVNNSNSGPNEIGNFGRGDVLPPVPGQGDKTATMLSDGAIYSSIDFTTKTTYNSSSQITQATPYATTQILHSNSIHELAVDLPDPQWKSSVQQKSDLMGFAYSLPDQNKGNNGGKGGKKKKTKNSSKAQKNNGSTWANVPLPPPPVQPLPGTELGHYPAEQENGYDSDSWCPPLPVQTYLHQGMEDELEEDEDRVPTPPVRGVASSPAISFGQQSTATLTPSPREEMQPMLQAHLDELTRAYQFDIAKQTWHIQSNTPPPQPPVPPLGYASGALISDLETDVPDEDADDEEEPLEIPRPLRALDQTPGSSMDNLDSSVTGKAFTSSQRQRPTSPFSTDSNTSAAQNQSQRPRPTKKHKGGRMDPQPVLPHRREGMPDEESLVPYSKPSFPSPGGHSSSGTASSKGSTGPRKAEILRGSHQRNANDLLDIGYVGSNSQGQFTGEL
Method: Using flow cytometry, improvement in the binding EC₅₀ to human ROBO2 relative to the parental 93H2 was evaluated. Starting at 6.7 nM, 11-point, 3-fold dilution series were made for each antibody and used to stain HEK293 overexpressing human ROBO2 as described above for the ROBO2 fold selectivity (Example 2). […] In addition to measuring improved binding to human ROBO2, it was important to ensure that high affinity binding to both cynomolgus monkey ROBO2 and rat ROBO2 was maintained. Using HEK293 cells overexpressing either cynomolgus monkey ROBO2 or rat ROBO2, the relative dose-dependent binding of 93H2, Abcs25 and Abcs35 was evaluated as described above. High affinity binding to both cynomolgus monkey and rat ROBO2 was maintained in Abcs25 and Abcs35 (Table 4). […] Briefly, Abcs35 was immobilized to 300 resonance units (RU) on a CM5 chip. Association of ROBO2 Ig1-Ig2-His (ROBO2) was measured over 5 minutes and dissociation was followed for a period of 10 minutes.
(§1) The binding profile of Abcs35-J compared to Abcs35 was determined for human ROBO2, orthologs from cynomolgus monkey and rat, human ROBO1 and specificity for the RSK epitope from ROBO2 but not KSR from ROBO1. Binding was assessed by flow cytometry as described in Examples 2 (homolog specificity), Example 3 (ortholog reactivity) and Example 5 (RSK vs KSR epitope specificity). […] Binding of the antibodies was detected using a secondary fluorochrome conjugated anti-human IgG F(ab′)₂ antibody and samples analyzed on a Fortessa cytometer (BD Biosciences).

[1] = target: T2, Human ROBO1 overexpressed on HEK293 cells (human, UniProt Q9Y6N7 26-1651); test: flow cytometry on HEK293 cells overexpressing human ROBO1
T2 construct: also called ROBO1 cells
Method: as §1, with “Biosciences). […] FIGS. 16A-16F depicts binding profiles of Abcs35 (black circles) or Abcs35-J (grey squares) to human ROBO2 (FIG. 16A), cynomolgus monkey ROBO2 (FIG. 16B), rat ROBO2 (FIG. 16C), human ROBO1 (FIG. 16D), ROBO1 containing the ROBO2 RSK epitope (FIG. 16E) or ROBO2 containing the ROBO1 KSR epitope (FIG. 16 F).” for “Biosciences).”

T2 sequence (Q9Y6N7 26-1651 limits assumed): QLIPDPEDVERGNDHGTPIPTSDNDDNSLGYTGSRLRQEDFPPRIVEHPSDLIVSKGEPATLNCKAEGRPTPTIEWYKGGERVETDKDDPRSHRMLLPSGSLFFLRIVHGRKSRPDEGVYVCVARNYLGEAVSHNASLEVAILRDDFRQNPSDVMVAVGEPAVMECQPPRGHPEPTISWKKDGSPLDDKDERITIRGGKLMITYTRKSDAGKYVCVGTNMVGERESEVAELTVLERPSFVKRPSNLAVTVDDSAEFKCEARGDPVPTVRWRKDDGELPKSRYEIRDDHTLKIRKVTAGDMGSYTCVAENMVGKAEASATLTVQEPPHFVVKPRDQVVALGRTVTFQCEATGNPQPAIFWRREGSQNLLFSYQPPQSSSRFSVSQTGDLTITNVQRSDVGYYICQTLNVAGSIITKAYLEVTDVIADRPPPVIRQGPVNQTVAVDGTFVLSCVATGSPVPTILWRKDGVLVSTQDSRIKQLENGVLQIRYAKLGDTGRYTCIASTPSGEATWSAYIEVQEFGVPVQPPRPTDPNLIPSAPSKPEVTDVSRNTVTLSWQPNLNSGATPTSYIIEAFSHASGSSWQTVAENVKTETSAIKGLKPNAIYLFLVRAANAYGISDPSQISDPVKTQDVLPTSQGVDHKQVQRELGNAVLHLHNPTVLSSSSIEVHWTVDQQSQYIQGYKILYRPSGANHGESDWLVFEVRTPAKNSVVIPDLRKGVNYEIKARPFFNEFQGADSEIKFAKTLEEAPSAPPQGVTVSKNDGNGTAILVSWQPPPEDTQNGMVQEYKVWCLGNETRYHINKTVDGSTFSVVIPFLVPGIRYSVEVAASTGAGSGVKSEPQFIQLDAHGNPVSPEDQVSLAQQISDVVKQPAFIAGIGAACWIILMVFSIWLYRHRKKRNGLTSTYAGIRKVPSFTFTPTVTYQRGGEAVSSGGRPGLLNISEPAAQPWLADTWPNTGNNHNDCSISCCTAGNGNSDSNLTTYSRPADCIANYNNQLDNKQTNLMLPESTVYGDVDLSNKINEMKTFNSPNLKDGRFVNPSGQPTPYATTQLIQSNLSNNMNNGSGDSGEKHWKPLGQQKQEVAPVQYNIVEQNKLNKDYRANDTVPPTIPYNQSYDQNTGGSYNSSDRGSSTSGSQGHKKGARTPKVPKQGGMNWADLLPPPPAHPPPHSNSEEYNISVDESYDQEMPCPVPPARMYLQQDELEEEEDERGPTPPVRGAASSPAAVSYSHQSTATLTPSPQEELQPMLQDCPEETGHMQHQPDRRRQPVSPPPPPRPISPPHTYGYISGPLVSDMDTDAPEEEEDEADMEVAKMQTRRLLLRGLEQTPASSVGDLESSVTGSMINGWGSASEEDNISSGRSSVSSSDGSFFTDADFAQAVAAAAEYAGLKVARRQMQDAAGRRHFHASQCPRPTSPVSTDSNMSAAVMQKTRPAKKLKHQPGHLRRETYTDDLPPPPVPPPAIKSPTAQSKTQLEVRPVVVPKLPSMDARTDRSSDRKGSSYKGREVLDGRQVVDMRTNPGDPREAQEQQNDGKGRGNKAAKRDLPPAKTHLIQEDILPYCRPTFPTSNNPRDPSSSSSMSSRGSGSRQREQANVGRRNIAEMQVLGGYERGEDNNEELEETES

B1: Abcs35 (antibody, human IgG1, kappa)
heavy: EVQLVQSGAEVKKPGASVKVSCKASGYTFTGYYMHWVRQAPGQGLEWMGWINPKNGDTEFPQKFQGRVTMTRDTSITTAYMDLSRLRSDDTAVYYCARESGDDAFDIWGQGTMVTVSSASTKGPSVFPLAPSSKSTSGGTAALGCLVKDYFPEPVTVSWNSGALTSGVHTFPAVLQSSGLYSLSSVVTVPSSSLGTQTYICNVNHKPSNTKVDKKVEPKSCDKTHTCPPCPAPEAAGAPSVFLFPPKPKDTLMISRTPEVTCVVVDVSHEDPEVKFNWYVDGVEVHNAKTKPREEQYNSTYRVVSVLTVLHQDWLNGKEYKCKVSNKALPAPIEKTISKAKGQPREPQVYTLPPSREEMTKNQVSLTCLVKGFYPSDIAVEWESNGQPENNYKTTPPVLDSDGSFFLYSKLTVDKSRWQQGNVFSCSVMHEALHNHYTQKSLSLSPGK
light: DIVMTQSPSSLSASVGDRVTITCRASQSISSYLNWYQQKPGKAPKLLIYAASSLQSGVPSRFSGSGSGTDFTLTISSLQPEDFATYYCQQSVGLFFGGGTKVEIKRTVAAPSVFIFPPSDEQLKSGTASVVCLLNNFYPREAKVQWKVDNALQSGNSQESVTEQDSKDSTYSLSSTLTLSKADYEKHKVYACEVTHQGLSSPVTKSFNRGEC
notes: fully human IgG1; VH of Ab96 with VL of Ab123
- EC50 (Rat ROBO2 on cells): 26 pM
- binding result [1]: no binding (tested: last point just below 10^1 nM)

- EC50 (Rat ROBO2 on cells): 26 pM
B2: Abcs35-J (antibody, human IgG1, kappa)
heavy: B1 heavy with D82E
light: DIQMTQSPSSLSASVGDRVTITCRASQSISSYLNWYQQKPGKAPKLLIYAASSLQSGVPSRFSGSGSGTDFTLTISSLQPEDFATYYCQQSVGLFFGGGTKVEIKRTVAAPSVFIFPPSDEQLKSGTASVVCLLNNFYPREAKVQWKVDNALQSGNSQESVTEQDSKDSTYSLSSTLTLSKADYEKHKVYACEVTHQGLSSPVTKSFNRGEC
notes: germlined variant of Abcs35; also called ABCS-J
- binding result [1]: no binding (tested: last point just below 10^1 nM)
